Laboratory results from patent US20210388087A1 (Chugai, published 2021).
Substitutions are numbered along the chain they refer to. Names may count otherwise. Blank lines part the entries; values can stand above or below the binder they belong to.

Molecular target: T1, Human CD137 ECD (human)
T1 construct: also called 4-1BB
Assay: single mutant vs template dBBDu183H

T1 sequence (chain, as listed by the source limits assumed): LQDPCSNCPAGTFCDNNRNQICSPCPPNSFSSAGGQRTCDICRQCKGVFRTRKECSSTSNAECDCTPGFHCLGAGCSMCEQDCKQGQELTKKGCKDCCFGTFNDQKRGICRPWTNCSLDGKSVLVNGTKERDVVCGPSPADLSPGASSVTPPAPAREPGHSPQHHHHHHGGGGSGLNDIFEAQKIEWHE

B1: H183/L072 VH A32Q (antibody, name in Kabat numbering, V domains shown)
VH: QVQLVESGGGLVQPGRSLRLSCAASGFTFSNQWMHWVRQAPGKGLEWVAQIKDKGNAYAAYYAPSVKGRFTISRDDSKNSIYLQMNSLKTEDTAVYYCHYVHYASASTVLPAFGVDAWGQGTTVTVSS
VL: DIVMTQSPLSLPVTPGEPASISCQASQELVHMNRNTYLHWYQQKPGQAPRLLIYKVSNRFPGVPDRFSGSGSGTDFTLKISRVEAEDVGVYYCAQGTSVPFTFGQGTKLEIK
fold change of affinity: 1.6 fold

B2: H183/L072 VH A32V (antibody, name in Kabat numbering, V domains shown)
VH: B1 VH with Q32V
VL: B1 VL
fold change of affinity: 3.7 fold

B4: H183/L072 VH A54H (antibody, name in Kabat numbering, V domains shown)
VH: B1 VH with Q32A, A57H
VL: B1 VL
fold change of affinity: 1 fold

B5: H183/L072 VH A54F (antibody, name in Kabat numbering, V domains shown)
VH: B1 VH with Q32A, A57F
VL: B1 VL
fold change of affinity: 0.9 fold

B6: H183/L072 VH A54E (antibody, name in Kabat numbering, V domains shown)
VH: B1 VH with Q32A, A57E
VL: B1 VL
fold change of affinity: 1 fold

B8: H183/L072 VH A32S (antibody, name in Kabat numbering, V domains shown)
VH: B1 VH with Q32S
VL: B1 VL
fold change of affinity: 0.9 fold

B10: H183/L072 VH A32Y (antibody, name in Kabat numbering, V domains shown)
VH: B1 VH with Q32Y
VL: B1 VL
fold change of affinity: 0 fold

B12: H183/L072 VH A54D (antibody, name in Kabat numbering, V domains shown)
VH: B1 VH with Q32A, A57D
VL: B1 VL
fold change of affinity: 1.1 fold

B13: H183/L072 VH A54I (antibody, name in Kabat numbering, V domains shown)
VH: B1 VH with Q32A, A57I
VL: B1 VL
fold change of affinity: 0.5 fold

B14: H183/L072 VH A32R (antibody, name in Kabat numbering, V domains shown)
VH: B1 VH with Q32R
VL: B1 VL
fold change of affinity: 0.3 fold

B18: H183/L072 VH A32T (antibody, name in Kabat numbering, V domains shown)
VH: B1 VH with Q32T
VL: B1 VL
fold change of affinity: 3.9 fold

Other lines, results leading:

fold change of affinity: 1 fold
B3: H183/L072 VH A54L (antibody, name in Kabat numbering, V domains shown)
VH: B1 VH with Q32A, A57L
VL: B1 VL

fold change of affinity: 0.9 fold
B7: H183/L072 VH A54K (antibody, name in Kabat numbering, V domains shown)
VH: B1 VH with Q32A, A57K
VL: B1 VL

fold change of affinity: 1.1 fold
B9: H183/L072 VH A54N (antibody, name in Kabat numbering, V domains shown)
VH: B1 VH with Q32A, A57N
VL: B1 VL

fold change of affinity: 0.9 fold
B11: H183/L072 VH A54R (antibody, name in Kabat numbering, V domains shown)
VH: B1 VH with Q32A, A57R
VL: B1 VL

fold change of affinity: 1 fold
B15: H183/L072 VH A54Q (antibody, name in Kabat numbering, V domains shown)
VH: B1 VH with Q32A, A57Q
VL: B1 VL

fold change of affinity: 1 fold
B16: H183/L072 VH A54M (antibody, name in Kabat numbering, V domains shown)
VH: B1 VH with Q32A, A57M
VL: B1 VL

fold change of affinity: 0.9 fold
B17: H183/L072 VH A54S (antibody, name in Kabat numbering, V domains shown)
VH: B1 VH with Q32A, A57S
VL: B1 VL
